This data set concerns O=[N+]([O-])c1ccc(O[C@H]2O[C@H](CO)[C@H](O)[C@H](O)[C@H]2O)cc1. Put plainly: cells, lysate or membranes. Conditions: Tris-HCl pH 8, 25 °C, unpurified cell-free expression reaction, final substrate 0.5-50 mM.

From PMC12137362, “OsAPSE modulates non-covalent interactions between arabinogalactan protein O-glycans and pectin in rice cell walls” (Frontiers in Plant Science, 2025) come the findings set out here.

The Km is the concentration of substrate that gives half-maximal velocity.

As for “GH27_OsAPSE (GH27 domain of OsAPSE) (Oryza sativa Japonica Group)”, the Km worked out at 670 µM.
